The record followed here is patent US20110293610A1 (published 2011).

Holding throughout (experiment): phage ELISA
Experiment [1] has as its target T1, B Lymphocyte Stimulator, soluble form (human) (human, UniProt Q9Y275 134-285, biotinylated with NHS-biotin where used as biotinylated B Lymphocyte Stimulator).
T1 construct: Coated on plastic, captured on streptavidin plates, amine-coupled to a CM5 chip or free in solution, depending on the assay; also called BLyS; immobilized B Lymphocyte Stimulator

Another experiment addresses LIGHT (human, UniProt O43557 74-240, limits assumed).
The target of another experiment is T2, TNF-alpha (human, UniProt P01375 77-233).
T2 construct: also called TNFα; TNF-α

The next experiment addresses T3, TNF-beta (human, UniProt P01374 35-205).
T3 construct: also called TNFβ; Tumour Necrosis Factor-beta
T3 sequence (looked up): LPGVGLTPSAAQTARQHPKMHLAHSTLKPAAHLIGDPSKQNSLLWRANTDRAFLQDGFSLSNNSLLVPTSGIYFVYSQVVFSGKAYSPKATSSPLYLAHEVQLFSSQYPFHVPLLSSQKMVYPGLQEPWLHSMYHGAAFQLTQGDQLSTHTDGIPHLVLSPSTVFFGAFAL

In the next experiment the target is T4, TRAIL (human, UniProt P50591 114-281).
T4 construct: also called TNF-related apoptosis inducing ligand
T4 sequence (P50591 114-281 limits assumed): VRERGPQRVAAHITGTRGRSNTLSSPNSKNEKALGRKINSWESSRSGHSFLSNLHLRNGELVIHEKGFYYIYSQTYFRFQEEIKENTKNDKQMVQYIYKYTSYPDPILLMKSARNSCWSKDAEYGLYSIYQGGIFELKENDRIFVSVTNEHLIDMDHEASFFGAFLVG

T2 sequence (P01375 77-233 limits assumed): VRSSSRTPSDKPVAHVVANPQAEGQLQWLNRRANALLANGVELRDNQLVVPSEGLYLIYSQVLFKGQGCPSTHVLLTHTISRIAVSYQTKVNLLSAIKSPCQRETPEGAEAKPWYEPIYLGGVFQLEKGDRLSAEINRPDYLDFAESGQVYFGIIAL
Sequence of LIGHT (O43557 74-240 limits assumed): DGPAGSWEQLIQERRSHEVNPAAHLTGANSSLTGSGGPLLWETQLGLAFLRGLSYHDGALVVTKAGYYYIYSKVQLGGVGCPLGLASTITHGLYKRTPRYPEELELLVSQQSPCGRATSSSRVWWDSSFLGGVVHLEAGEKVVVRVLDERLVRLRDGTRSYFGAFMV

B1: I073F04 (scFv)
scFv: QVQLQQSGAEVKKPGSSVKVSCKASGGTFRSYAFSWVRQAPGQGLEWMGYIVPVFGTATYAQNFQGRVTITADELTTTAFMELSSLTSEDTAVYYCARSLATRPLGMDVWGRGTTVTVSSGGGGSGGGGSGGGGSQSVLTQPASVSGSPGQSITISCTGTSSDVGGYNYVSWYQQHPGKAPKLMIYEGSKRPSGVSNRFSGSKSGNTASLTISGLQAEDEADYYCSSYTTRSTRVFGGGTKLTVLG
As for B1, the binding result in experiment [1] was “binds”; with LIGHT it was “no binding”; with TNF-alpha, “no binding”; with TNF-beta, “no binding”; with TRAIL, “no binding”.

B2: I068B04 (scFv)
scFv: QVQLVQSGAEVKKPGSSVKVSCKASGGTVSSRTISWVRQAPGQGLEWMGGSLPPSGAPIYAQKFQGRVAITADALTNTAFMELRSLKSDDTAVYYCARDQGRYLDLWGRGTLVTVSSGGGGSGGGGSGGGGSALPVLTQPPSASATPGQRVTISCSGSSSNIGSNYVYWYQQLPGTAPKVLIYRNNQRPSGVPDRFSGSRSGTSASLAISGLRSEDEADYYCATWDDSLSGPVFGGGTKVTVLG
Turning to B2, the binding result in experiment [1] is given as “binds”; with LIGHT it was “no binding”; in the experiment with TNF-alpha, “no binding”; with TNF-beta, “no binding”; with TRAIL it was “no binding”.

B3: I067B10 (scFv)
scFv: QMQLVQSGAEVKKPGASVKVSCKASGYTFTSYYMHWVRQAPGQGLEWMGWINAGNSNTKYSQKFQGRVTITSDTSASTAYMELSGLRSEDTAVYYCARDRGAPNYDILTGYYAPAQGVAFDIWGKGTLATVSSGGGGSGGGGSGGGGSQSVLTQPPSVSAAPGQKVTISCSGSTSNIGNNYVSWYQQHPGKAPKLMIYDVSKRPSGVPDRFSGSKSGNSASLDISGLQSEDEADYYCAAWDDSLSEFLFGTGTKLTVLG
Take B3: the binding result in experiment [1] was “binds”; in the experiment with LIGHT, “no binding”; with TNF-alpha it was “no binding”; with TNF-beta, “no binding”; with TRAIL, “no binding”.

B4: I065D08 (scFv)
scFv: GVQLVQSGAEVKKPGASVKVSCKASGYTFTSYGISWVRQAPGQGLEWMGWISAYNGNTNYAQKLQGRVTMTTDTSTSTAYMELRSLRSDDTAVYYCARTPSSVYDLLTGYYHYFYSYMDVWGRGTMVTVSSGGGGSGGGGSGGGGSQSVLTQPASVSGSPGQSITISCTGTSSDVGGYNYVSWYQQHPGEAPKLMIYEGSKRPSGVSNRFSGSKSGNTASLTISGLQAEDEADYYCSSYTTRSTRVFGGGTKLTVLG
Regarding B4, the binding result in experiment [1] was “binds”; in the experiment with LIGHT, “no binding”; in the experiment with TNF-alpha, “no binding”; in the experiment with TNF-beta it was “no binding”; with TRAIL, “no binding”.

B5: I026C04 (scFv)
scFv: QVQLVQSGAEVKKPGSSVKVSCRASGGSFNHAISWVRQAPGRGLEWMGGILPMYGTANYAQKFQGRVTITADKLTNTVYMDLSRLRYEDTAVYYCARELGLSIVGATTGALDMWGKGTLVTVSSGGGGSGGGGSGGGGSAQSVLTQPPSVSAAPGQKVTISCSGSSSNIGNNYVSWYQQIPGTAPKLLIYENNKRPSGIPDRFSGSKSGASATLDITGLQTGDEADYYCGTWHSSQVVFGGGTKLTVLG
With B5, the binding result in experiment [1] is listed as “binds”; with LIGHT, “no binding”; with TNF-alpha, “no binding”; with TNF-beta, “no binding”; with TRAIL, “no binding”.

B6: I025B06 (scFv)
scFv: QVQLVQSGAEVKKPGSSVKVSCRASGGSFNHAISWVRQAPGRGLEWMGGILPMYGTANYAQKFQGRVTITADKLTNTVYMDLSRLRYEDTAVYYCARELGLSIVGATTGALDMWGKGTLVTVSSGGGGSGGGGSGGGGSAQSVLTQPPSVSAAPGQKVTISCSGSSSNIGNNYVSWYQQIPGTAPKLLIYENNKRPSGIPDRFSGSKSGASAALDITGLQTGDEADYYCGTWHSSQVVFGGGTKLTVLG
With B6, the binding result in experiment [1] is listed as “binds”; in the experiment with LIGHT, “no binding”; in the experiment with TNF-alpha, “no binding”; with TNF-beta, “no binding”; with TRAIL, “no binding”.

B7: I025B09 (scFv)
scFv: QVHLVQSGAEVKKPGSSVKVSCRASGGSFNHAISWVRQAPGRGLEWMGGILPMYGTANYAQKFQGRVTITADKLTNTVYMDLSRLRYEDTAVYYCARELGLSIVGATTGALDMWGKGTLVTVSSGGGGSGGGGSGGGGSAQSVLTQPPSVSAAPGQKVTISCSGSSSNIGNNYVSWYQQIPGTAPKLLIYENNKRPSGIPDRFSGSKSGASATLDITGLQTGDEADYYCGTWHSSQVVFGGGTKLTVLG
notes: also called I0025B09
As to B7, the binding result is “binds” in experiment [1]; “no binding” with LIGHT; “no binding” with TNF-alpha; “no binding” in the experiment with TNF-beta; “no binding” in the experiment with TRAIL.

B8: I003C06 (scFv)
scFv: QVQLVQSGAEVKKPGSSVKVSCRASGGSFNHAISWVRQAPGRGLEWMGGILPMYGTANYAQKFQGRVTITADKLTNTVYMDLSRLRYEDTAVYYCARELGLSIVGATTGALDMWGKGTLVTVSSGGGGSGGGGSGGGGSALPVLTQPPSVSVAPGQTATLTCGGTNFGRQSVHWYQQKPGQAPVLAIYHDDVRPSGIPERLSGSKSGNTATLTISRVEAGDEAAYYCQVWDSGSDVVVFGGGTKLTVLG
As to B8, the binding result in experiment [1] is recorded as “binds”; in the experiment with LIGHT, “no binding”; in the experiment with TNF-alpha, “no binding”; in the experiment with TNF-beta it was “no binding”; in the experiment with TRAIL, “no binding”.

B9: I065F08 (scFv)
scFv: QVQLQQSGAEVKKPGSSVKVSCKASGDTFSSFGISWVRQVPGQGLEWMGAIIPKFDIVTYAEEFKGRVTISADKLTNTAYMEVKSLRSEDTAVYYCTREKSAAGYFDYWGKGTLVTVSSGGGGSGGGGSGGGGSDIVMTQSPSTLSASVGDRVTITCRASQGISSWLAWYQQKPGRAPKVLIYKASTLESGVPSRFSGSGSGTDFTLTISSLQPEDFATYYCQQSYSTPWTFGQGTKLEIKR
Take B9: the binding result in experiment [1] was “binds”; in the experiment with LIGHT, “no binding”; with TNF-alpha, “no binding”; with TNF-beta, “no binding”; in the experiment with TRAIL it was “no binding”.

B10: I030A10 (scFv)
scFv: QVQLVQSGAEVKKPGSSVKVSCRASGGSFNHAISWVRQAPGRGLEWMGGILPMYGTANYAQKFQGRVTITADKLTNTVYMDLSRLRYEDTAVYYCARELGLSIVGATTGALDMWGRGTLVTVSSGGGGSGGGGSGGGGSAQAVLTQPSSVSGAPGQRVIISCTGSSSNIGPDYDVHWYQQLPGTAPKLLIYGNNNRPSGVPDRFSGSKSGTSASLAITGLQAEDEAHYYCQSYGSSLSGVVFGGGTKVTVLG
In the case of B10, the binding result in experiment [1] is reported as “binds”; with LIGHT, “no binding”; in the experiment with TNF-alpha, “no binding”; in the experiment with TNF-beta, “no binding”; with TRAIL, “no binding”.

B11: I002A01-R (scFv)
scFv: QVQLVQSGAEVKKPGSSVKVSCRASGGSFNRHAISWVRQAPGRGLEWMGGILPMYGTANYAQKFQGRVTITADKLTNTVYMDLSRLRYEDTAVYYCARELGLSIVGATTGALDMWGKGTLVTVSSGGGGSGGGGSGGGGSALPVLTQPPSVSVAPGQTATLTCGGTNFGRQSVHWYQQKPGQAPVLAIYHDDVRPSGIPERLSGSKSGNTATLTISRVEAGDEAAYYCQVWDSGSDVVVFGGGTKLTVLG
With B11, the binding result was “binds” in experiment [1]; “no binding” with LIGHT; “no binding” with TNF-alpha; “no binding” with TNF-beta; “no binding” with TRAIL.

B12: I002A01-K (scFv)
scFv: QVQLVQSGAEVKKPGSSVKVSCRASGGSFNKHAISWVRQAPGRGLEWMGGILPMYGTANYAQKFQGRVTITADKLTNTVYMDLSRLRYEDTAVYYCARELGLSIVGATTGALDMWGKGTLVTVSSGGGGSGGGGSGGGGSALPVLTQPPSVSVAPGQTATLTCGGTNFGRQSVHWYQQKPGQAPVLAIYHDDVRPSGIPERLSGSKSGNTATLTISRVEAGDEAAYYCQVWDSGSDVVVFGGGTKLTVLG
With B12, the binding result in experiment [1] is “binds”; with LIGHT, “no binding”; in the experiment with TNF-alpha, “no binding”; with TNF-beta, “no binding”; in the experiment with TRAIL, “no binding”.

B13: I026C04-R (scFv)
scFv: QVQLVQSGAEVKKPGSSVKVSCRASGGSFNRHAISWVRQAPGRGLEWMGGILPMYGTANYAQKFQGRVTITADKLTNTVYMDLSRLRYEDTAVYYCARELGLSIVGATTGALDMWGKGTLVTVSSGGGGSGGGGSGGGGSAQSVLTQPPSVSAAPGQKVTISCSGSSSNIGNNYVSWYQQIPGTAPKLLIYENNKRPSGIPDRFSGSKSGASATLDITGLQTGDEADYYCGTWHSSQVVFGGGTKLTVLG
As to B13, the binding result was “binds” in experiment [1]; “no binding” with LIGHT; “no binding” with TNF-alpha; “no binding” in the experiment with TNF-beta; “no binding” with TRAIL.
